1 molecule from patent publication US20260216293A1, “METHODS AND AGENTS FOR TREATING RESPIRATORY INFLAMMATION AND ASSOCIATED DISEASES AND CONDITIONS” (AROA BIOSURGERY LIMITED, priority 2023, published 2026) can be followed below.

Assay type in all cases: in vivo, C57BL/6 mice
The subject of test [1] is murine model of respiratory inflammation (IT LPS). Kind of test: BALF cytokine analysis (MSD) in LPS-induced murine model of respiratory inflammation. To be noted: IV, 1 h before LPS. Here is the method:
All animal experiments were performed in accordance with the guidelines of decreasing the amount of suffering, pain, and discomfort of the experimental animals. A total of 54 male C57BL/6 mice were used in this study. Mice between the ages of 7 to 8 weeks were obtained from IACUC approved laboratory animal supplier. Animals were acclimated for at least 4 days prior to the study. Animals were housed in a temperature-controlled room with a 12-hour light/dark cycle, with ad libitum access to water and irradiated laboratory chow throughout the study. Animals were individually identified by ear tags. Animals were weighed one day prior to the start of the study and stratified into 6 groups of 9 animals so that each group has roughly the same average weight. Animals were monitored for any form of discomfort as well as for clinical symptoms of distress or ambulatory discomfort.
A total of 54 male C57BL/6 mice (7 to 8 weeks old, body weight […]) were used in this study, as set out below in Table 2.
At −1 h (1 hr before the lipopolysaccharide (LPS) administration), animals were treated with: Vehicle for groups 1 and 2 via an intravenous route (200 μL); dexamethasone (5 mg/kg) as a positive control (group 3) via an intraperitoneal (IP) route (5 mg/kg, 200 μL); MD31-170 for groups 4-6 via an intravenous (IV) route at the appropriate dosage (200 μL). […]
(§1) Lungs were harvested from each animal and weighed. […] The cell pellet was resuspended in 100 μL PBS and the number of total cells was counted using Cell Counter model R1 (Olympus, Tokyo, Japan). […] Neutrophil counts were quantified using a light microscope by counting a total of 200 cells/slide at 40× magnification.
BALF cytokines concentrations were evaluated from an aliquot of BALF using the 29-plex cytokine MSD Platform (Cat. K152167D) according to manufacturer's instruction.

Test [2] has the same test system. Kind of test: Lung histological pathology (H&E, lung injury score) in LPS-induced murine model of respiratory inflammation. The procedure:
(§2) At −1 h (1 hr before the lipopolysaccharide (LPS) administration), animals were treated with: Vehicle for groups 1 and 2 via an intravenous route (200 μL); dexamethasone (5 mg/kg) as a positive control (group 3) via an intraperitoneal (IP) route (5 mg/kg, 200 μL); MD31-170 for groups 4-6 via an intravenous (IV) route at the appropriate dosage (200 μL).
(§3) After administration of anesthesia by sodium pentobarbital, the mice underwent intra-tracheal (IT) instillation of a nonlethal dose of LPS from E. coli 0111: B4 (Sigma-Aldrich, St. Louis, MO, USA) at 5 mg/kg dissolved in 100 μl PBS to induce acute respiratory inflammation. LPS (Sigma L4391, O111: B4) lyophilized powder was resuspended in 0.9% saline to give aliquots at 2.5 mg/ml which were stored at […]. At time=0 h, animals in vehicle group 1 were administered PBS (40 μL) via an IT route and animals in groups 2-6 were administered LPS (40 μL) at 5 mg/kg by an IT route to induce acute respiratory inflammation. Termination occurred at either 6 h, 24 h or 72 h with each animal weighed at the endpoint.
The whole lung was fixed in 10% Neutral Buffered Formalin (NBF) and embedded in paraffin and then cut into 4 μm sections. Then, the sections were deparaffinized and stained with hematoxylin and eosin (H&E) for histological evaluation.
The severity of lung tissue inflammation was evaluated using lung injury score as follows. The severity of lung damage was scored based on the following histologic features: alveolar congestion, hemorrhage, infiltration of neutrophils in airspace or vessel wall, and thickness of alveolar wall/hyaline membrane formation. Each item was graded on a five-point scale from 0 to 4:0 (minimal damage), 1 (mild damage), 2 (moderate damage), 3 (severe damage), and 4 (maximal damage).

Test [3] has the same test system. Description: BALF neutrophil count in LPS-induced murine model of respiratory inflammation. To be noted: all assessed timepoints (6, 24, 72 hours); FIG. 5. Here is the method: as §2, §3, §1
Test [4] shares this test system. Description: MPO levels of BALF in LPS-induced murine model of respiratory inflammation. To be noted: groups 4, 5 and 6 (2.5, 25, 100 μg/animal IV) at 6 hours and 24 hours; FIG. 6. The procedure:
as §2
After administration of anesthesia by sodium pentobarbital, the mice underwent intra-tracheal (IT) instillation of a nonlethal dose of LPS from E. coli 0111: B4 (Sigma-Aldrich, St. Louis, MO, USA) at 5 mg/kg dissolved in 100 μl PBS to induce acute respiratory inflammation. LPS (Sigma L4391, O111: B4) lyophilized powder was resuspended in 0.9% saline to give aliquots at 2.5 mg/ml which were stored at 20° C. […]
as §1
MPO levels were evaluated from an aliquot of BALF in an MPO assay using Abcam kit (Cat. Ab155458) according to manufacturer's instructions.

Where [5] appears, read: groups 4, 5 and 6 vs dexamethasone 5 mg/kg IP, FIGS. 7-9.

B1: MD31-170: recombinant MayDay polypeptide comprising amino acids 31-170 of ovine decorin, expressed in BL21 E. coli (protein)
chain: DEASGIGPEERFHEVPELEPMGPVCPFRCQCHLRVVQCSDLGLEKVPKDLPPDTALLDLQNNKITEIKDGDFKNLKNLHTLILINNKISKISPGAFAPLVKLERLYLSKNQLKELPEKMPKTLQELRVHENEITKVRKSV
modifications: Ovis aries
notes: recombinant MayDay polypeptide comprising amino acids 31-170 of ovine decorin, expressed in BL21 E. coli
B1: in test [1] (6 hours post-administration, compared to LPS control group (group 2), FIG. 2A), the “protein levels of TNF-α in BALF” value is “significantly decreased”. In test [1] (24 hours post-administration, compared with LPS group (group 2), FIG. 3B), the “protein levels of IFN-γ in BALF” value is “significantly decreased”. The “protein levels of IL-6 in BALF” value in test [1] (24 hours post-administration, compared with LPS group (group 2), FIG. 4B) was “significantly decreased”. Further, the “neutrophil score, inflammation score and interstitial inflammation score: dose dependence” value in test [2] (6, 24 and 72 hours post LPS-induction) is “dose dependent changes”. In test [2] (24 hours, group 6 (100 μg/mouse) compared to LPS control (group 2), FIG. 7B), the “neutrophil score (histology)” value is on record as “statistically significant decreases”. In addition, the “inflammation score (inflammation-neutrophilic alveolar score, histology)” value in test [2] (24 hours, group 6 (100 μg/mouse) compared to LPS control (group 2), FIG. 8B) was “statistically significant decreases”. For the same molecule, the “interstitial inflammation score (histology)” value in test [2] (24 hours, group 6 (100 μg/mouse) compared to LPS control (group 2), FIG. 9B) was “statistically significant decreases”. In addition, the lung injury score entry in test [2] (groups 4, 5 and 6 (2.5, 25, 100 μg/animal IV)) is “consistently and substantially decreased”. Further, the “pathological changes in the lung (alveolar wall not intact, interstitial edema, inflammatory cell infiltration)” value in test [2] (groups 4, 5 and 6 (2.5, 25, 100 μg/animal IV), H&E) is listed as “alleviated”. Also, in test [2] (setting [5]), the “lung damage relative to dexamethasone treated animals (group 3)” value was “comparable or less than” and the “positive effect on lung pathology relative to positive control dexamethasone (group 3)” value is “comparable to or better than”. Further, the “number of neutrophils in BALF” value in test [3] was “decreased significantly”. Besides, in test [4], the “myeloperoxidase (MPO) in BALF” value was “significantly reduced”.
